B1: Oxysterol-binding protein-related protein 3A (Arabidopsis thaliana (Mouse-ear cress)), Q9LZM1 (parent)
chain: MASNDPKNGGGFFASLASSITNFGSAMSKSVNGLMGYEGLEVINPEGSTDDAEEEAGRGRWKQEERDGYWKMMQKYIGSDVTSMVTLPVIIFEPMTMLQKMAELMEYSYLLDMADKTEDPYMRMVYASSWAISVYYAYQRTWKPFNPILGETYEMTNHNGINFIAEQVCHHPPMSAGHAENEHFAYDCTSKLKTKFLGNSIDVYPVGRTRVTLKRDGVVLDLVPPLTKVHNLIFGRTWVDSPGEMVMTNLTTGDKVVLYFQPCGWFGSGRYEVDGYVYNSAEEPKMLMTGKWNESLSYQPCDAEGEPLPGTELKEVWKVAEAPKNDKYQYTHFAHKINSFDTAPKKLLSSDSRLRPDRYALEMGDMSKSGFEKSSLEDRQRAEKKSREEKGQKFAPKWFDETEEVTPTPWGDLEVYQFNGKYSVHRATAENSEDTTDVKLTQFNPWQFQDLSA
partner: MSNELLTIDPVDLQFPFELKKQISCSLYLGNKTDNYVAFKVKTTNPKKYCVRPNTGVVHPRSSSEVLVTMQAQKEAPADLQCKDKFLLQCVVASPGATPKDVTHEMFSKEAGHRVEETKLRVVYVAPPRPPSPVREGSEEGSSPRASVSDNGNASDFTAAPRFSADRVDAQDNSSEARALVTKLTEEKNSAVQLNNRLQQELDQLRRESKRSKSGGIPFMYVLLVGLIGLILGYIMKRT

Variants of: B1
Settings: with vap12_arath PVA12, Q9SHC8

Row | effect of a mutation on the interaction | Variant
1 | disrupting interaction | W398A;F399A;D400G;E401G;E403G

From IntAct's records for PubMed 19207211
